Data on 1 substance can be found in PMC4467794.

The assay addresses Mcx1-3xFLAG, wildtype, purified recombinant (S. cerevisiae) (UniProt P38323). Put plainly: co-IP.

Sequence of Mcx1-3xFLAG, wildtype, purified recombinant (S. cerevisiae) (P38323 14-520): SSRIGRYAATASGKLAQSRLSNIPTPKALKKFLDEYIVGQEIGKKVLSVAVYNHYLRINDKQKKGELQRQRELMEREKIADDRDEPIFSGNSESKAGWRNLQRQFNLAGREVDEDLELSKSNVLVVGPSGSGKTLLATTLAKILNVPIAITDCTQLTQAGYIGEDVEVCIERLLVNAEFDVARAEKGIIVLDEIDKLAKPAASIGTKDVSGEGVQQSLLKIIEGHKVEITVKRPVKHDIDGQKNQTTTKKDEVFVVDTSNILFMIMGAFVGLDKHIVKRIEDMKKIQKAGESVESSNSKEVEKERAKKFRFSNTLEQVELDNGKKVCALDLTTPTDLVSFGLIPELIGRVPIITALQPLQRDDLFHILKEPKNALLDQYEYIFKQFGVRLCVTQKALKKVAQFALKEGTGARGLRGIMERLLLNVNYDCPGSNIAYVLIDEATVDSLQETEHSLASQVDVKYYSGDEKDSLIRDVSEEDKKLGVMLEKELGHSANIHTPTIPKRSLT

For the substance “apoHem1 (PLP-free Hem1, yeast ALA synthase), purified recombinant (from UniProt P09950 23-548) (enzyme)”, the fold amount bound relative to holoHem1 stood at 10 fold.
